# Laboratory results: the supplement of paper PMC9112550, “Optimization of the antimicrobial peptide Bac7 by deep mutational scanning” (BMC Biology, 2022)
# Test system: Escherichia coli TOP10
# Experiment: shrunken log2 fold change of peptide-encoding DNA abundance (4.5 h post-induction vs induction); higher = less antimicrobial activity (less host growth inhibition)
# Details: time post-induction: 4.5 h; library: site-saturation at positions 5, 18, 19, 20
# 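Note: peptides expressed intracellularly from a pBAD plasmid library in pooled LB shake-flask culture, induced with 0.3% L-arabinose, DNA abundance read by NGS, three biological replicates, DESeq2 with apeglm shrinkage.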
row,Sequence,shrunken log2 fold change
1,RRIRYRPPRLPRPRPRPRASPRP,-0.412
2,RRIRNRPPRLPRPRPRPPNEPRP,0.217
3,RRIRFRPPRLPRPRPRPAYVPRP,0.678
4,RRIRQRPPRLPRPRPRPVDHPRP,-0.335
5,RRIRMRPPRLPRPRPRPVEMPRP,-0.0685
6,RRIRTRPPRLPRPRPRPKYMPRP,-0.15
7,RRIRNRPPRLPRPRPRPFTFPRP,-0.628
8,RRIRCRPPRLPRPRPRPFPKPRP,0.131
9,RRIRSRPPRLPRPRPRPWDMPRP,-0.254
10,RRIRNRPPRLPRPRPRPDDVPRP,-0.0233
11,RRIRSRPPRLPRPRPRPGFPPRP,-0.00277
12,RRIRIRPPRLPRPRPRPCHKPRP,-0.16
13,RRIRERPPRLPRPRPRPLSVPRP,-0.642
14,RRIRQRPPRLPRPRPRPPLWPRP,0.494
15,RRIRARPPRLPRPRPRPQYFPRP,-0.153
16,RRIRSRPPRLPRPRPRPPHKPRP,0.173
17,RRIRIRPPRLPRPRPRPHNYPRP,-0.376
18,RRIRHRPPRLPRPRPRPKIIPRP,-1.08
19,RRIRMRPPRLPRPRPRPWYHPRP,-0.00277
20,RRIRSRPPRLPRPRPRPTAFPRP,0.534
21,RRIRQRPPRLPRPRPRPEPPPRP,0.488
22,RRIRSRPPRLPRPRPRPTNWPRP,0.0446
23,RRIRMRPPRLPRPRPRPNGYPRP,0.0495
24,RRIRGRPPRLPRPRPRPAPNPRP,0.829
25,RRIRFRPPRLPRPRPRPFVLPRP,-0.532

row,Sequence,shrunken log2 fold change
1,RRIRSRPPRLPRPRPRPKCVPRP,-0.138
2,RRIRNRPPRLPRPRPRPEMTPRP,-0.059
3,RRIRPRPPRLPRPRPRPIDHPRP,0.0529
4,RRIRVRPPRLPRPRPRPCTFPRP,-0.0858
5,RRIRYRPPRLPRPRPRPTWIPRP,-1.08
6,RRIRTRPPRLPRPRPRPTSRPRP,0.141
7,RRIRDRPPRLPRPRPRPRFNPRP,0.858
8,RRIRRRPPRLPRPRPRPFPTPRP,0.164
9,RRIRDRPPRLPRPRPRPNRFPRP,-0.00648
10,RRIRTRPPRLPRPRPRPIQEPRP,0.0124
11,RRIRVRPPRLPRPRPRPEKSPRP,0.0304
12,RRIRQRPPRLPRPRPRPRPMPRP,0.303
13,RRIRHRPPRLPRPRPRPVIDPRP,-0.395
14,RRIRCRPPRLPRPRPRPNQLPRP,-0.345
15,RRIRERPPRLPRPRPRPFDCPRP,-0.0657
16,RRIRVRPPRLPRPRPRPKEWPRP,0.146
17,RRIRRRPPRLPRPRPRPILNPRP,-0.0188
18,RRIRARPPRLPRPRPRPAGAPRP,1.16
19,RRIRCRPPRLPRPRPRPSEFPRP,-0.287
20,RRIRARPPRLPRPRPRPEIPPRP,0.3
21,RRIRFRPPRLPRPRPRPGKCPRP,-0.421
22,RRIRKRPPRLPRPRPRPDQDPRP,0.0345
23,RRIRERPPRLPRPRPRPQHMPRP,-0.735
24,RRIRPRPPRLPRPRPRPTTIPRP,-0.223
25,RRIRLRPPRLPRPRPRPWCRPRP,0.0427

row,Sequence,shrunken log2 fold change
1,RRIRFRPPRLPRPRPRPHTMPRP,-0.459
2,RRIRIRPPRLPRPRPRPHVFPRP,0.064
3,RRIRDRPPRLPRPRPRPQALPRP,0.214
4,RRIRARPPRLPRPRPRPKINPRP,-0.0292
5,RRIRRRPPRLPRPRPRPDFAPRP,0.39
6,RRIRHRPPRLPRPRPRPHFFPRP,-0.0737
7,RRIRPRPPRLPRPRPRPSKGPRP,0.0318
8,RRIRIRPPRLPRPRPRPKWIPRP,-0.77
9,RRIRDRPPRLPRPRPRPEKAPRP,0.236
10,RRIRKRPPRLPRPRPRPYYVPRP,-0.197
11,RRIRQRPPRLPRPRPRPFWAPRP,0.289
12,RRIRVRPPRLPRPRPRPWLDPRP,0.183
13,RRIRYRPPRLPRPRPRPGAFPRP,-0.805
14,RRIRPRPPRLPRPRPRPTAIPRP,0.434
15,RRIRIRPPRLPRPRPRPDYWPRP,-0.195
16,RRIRARPPRLPRPRPRPTVDPRP,0.732
17,RRIRGRPPRLPRPRPRPFMWPRP,0.211
18,RRIRKRPPRLPRPRPRPATEPRP,0.486
19,RRIRNRPPRLPRPRPRPRSDPRP,0.0587
20,RRIRIRPPRLPRPRPRPIDWPRP,-0.0878
21,RRIRIRPPRLPRPRPRPKKNPRP,-0.249
22,RRIRWRPPRLPRPRPRPSIYPRP,-0.305
23,RRIRERPPRLPRPRPRPVCDPRP,0.078
24,RRIRRRPPRLPRPRPRPSHFPRP,-0.262
25,RRIRGRPPRLPRPRPRPIYFPRP,-0.533
